Substitutions are numbered along the chain they refer to. Names and notes keep the numbering of the source. Where two headings read alike, the source gives them in different places.
What was measured:
Test in all cases: EMSA
6H-QseC2 [1] = target: T1, 6H-QseC2 (Mesorhizobium japonicum R7A, UniProt A0ABX6MZB7 1-81)
6H-QseC2 [2] = target: T1, 6H-QseC2; remark: listed apart in the source
6H-QseC2 [3] = target: T1, 6H-QseC2; remark: listed apart in the source
6H-QseC2 [4] = target: T1, 6H-QseC2; remark: listed apart in the source

B1: RDM2 EMSA (both scrambled) (dsDNA)
DNA 1: TACGTGGTTGAATGCTCGACACTACATGGCGCGGTTTGCCTTGTGGATTGCAAGTCCAGATAGAAACGGACATATTGATTATTAATTAGCGCTGATGAGCCGGTTCCCTTCTGGCCGGTTCATCTGATGCAGCGTGCGCTACTAGTTCCCGTA
DNA 2: TACGGGAACTAGTAGCGCACGCTGCATCAGATGAACCGGCCAGAAGGGAACCGGCTCATCAGCGCTAATTAATAATCAATATGTCCGTTTCTATCTGGACTTGCAATCCACAAGGCAAACCGCGCCATGTAGTGTCGAGCATTCAACCACGTA
Does B1 bind (6H-QseC2 [1])?
Result: no binding

B2: O2L EMSA (O2R scrambled) (dsDNA)
DNA 1: TACGTGGTTGAATGCTCGACACTACATGGCGCGGTTTGCCTTGTGGATTGCAAATATATCCTAAAATGGGATAGAACTACTGGTAACGTAGTTGATGAGCCGGTTCCCTTCTGGCCGGTTCATCTGATGCAGCGTGCGCTACTAGTTCCCGTA
DNA 2: TACGGGAACTAGTAGCGCACGCTGCATCAGATGAACCGGCCAGAAGGGAACCGGCTCATCAACTACGTTACCAGTAGTTCTATCCCATTTTAGGATATATTTGCAATCCACAAGGCAAACCGCGCCATGTAGTGTCGAGCATTCAACCACGTA
Does B2 bind (6H-QseC2 [2])?
Result: binds

B3: O2L-O2R EMSA (dsDNA)
DNA 1: TACGTGGTTGAATGCTCGACACTACATGGCGCGGTTTGCCTTGTGGATTGCAAATATATCCTAAAATGGGATAATCCGAAACTGGGATTAGTTGATGAGCCGGTTCCCTTCTGGCCGGTTCATCTGATGCAGCGTGCGCTACTAGTTCCCGTA
DNA 2: TACGGGAACTAGTAGCGCACGCTGCATCAGATGAACCGGCCAGAAGGGAACCGGCTCATCAACTAATCCCAGTTTCGGATTATCCCATTTTAGGATATATTTGCAATCCACAAGGCAAACCGCGCCATGTAGTGTCGAGCATTCAACCACGTA
Does B3 bind (6H-QseC2 [3])?
Result: binds

B4: O2R EMSA (O2L scrambled) (dsDNA)
DNA 1: B3 DNA 1 with A58G, T59A, C60G, C61T, A63C, A66T, T67C, G68T, G70A, T72A
DNA 2: B3 DNA 2 with A82T, C84T, C86A, A87G, T88A, T91G, G93A, G94C, A95T, T96C
Does B4 bind (6H-QseC2 [4])?
Result: binds
